Where a chain is given by its changes, count along the chain named. Numbers in names are those of the source.
T1: HbA1c-type αF8P (α-fructosyl-valyl-histidyl-leucyl-threonyl-prolyl-glutamyl-glutamyl-lysine)
T1 chain: VHLTPEEK

T2: HbC1c-type αF8P
T2 chain: VHLTPKEK

T3: HbS1c-type αF8P
T3 chain: VHLTPVEK

B1: CFP-T7-H40-3M (protein)
chain: MTSNRADTRVIVVGGGGTIGSSTALHLVRSGYAPANITVLDTFEIPSAQSAGHDLNKIMGIDHGNKVNLQMSLEARQMWKEDELFQPFFHNTGRMDCESTPKGIEKLKKYYQKLHDAGAGLEKTHAWLDNEDEILSKMPLLQRDQIQGWKAIWSQDGGWLAAAKAINAIGQFLKERGVKFGFGGAGSFKQPLFDDEGTTCIGVETADGTKYYADKVVLAAGAWSPTLVDLEDQCCSKAWVYAHIQLTPEEAAEYKGVPVVYNSEYGFFFEPDEFGVIKVCNEFPGFSRFKEHQPYGAPSPKRISVPRSHAKHPTDTYPDASEVSIKKAIATFLPRFQDKELFNRALCWCTDTADSTLLMCEHPKWKNFILATGDSGHSFKILPNVGKYVVELIEGRLPEEMAYQWRWRPGGDALKSRRAAPPKDLADMPGWKHDPKL
B2: CFP-T7-H40-3M K113S (protein)
chain: B1 chain with K113S
B3: CFP-T7-H40-3M K113T (protein)
chain: B1 chain with K113T
B4: CFP-T7-H40-3M K113A (protein)
chain: B1 chain with K113A
B5: CFP-T7-H40-3M K102A (protein)
chain: B1 chain with K102A
B6: CFP-T7-H40-3M K106D (protein)
chain: B1 chain with K106D
B7: CFP-T7-H40-3M K113E (protein)
chain: B1 chain with K113E
B8: CFP-T7-H40-3M K102E (protein)
chain: B1 chain with K102E
B9: CFP-T7-H40-3M K106A (protein)
chain: B1 chain with K106A
B10: En42FX R108L (protein)
chain: MAPRANTKIIVVGGGGTMGSSTALHLLRAGYTPSNITVLDTYPIPSAQSAGYDLNKIFGISGANKHDLQLSLEAFDMWKNDPLFKPFFHNVGQMDVSSTEEGIKRLRLRYQSLLRAGIGLEKTNFLLESEDEILAKAPHFTREQIKGWKGLFCGDGGWLAAAKAINAIGQFLKEQGVKFGFGEAGTFKKPLFADADEKTCIGVETVDGTKYYADKVVLAAGAWSSTLVDLEEQCVSKAWVFAHIQLTPAEAAAYKNTPVIYDGDYGFFIEPDENGIIKVCDEFPGFTHFKMHQPYGSPVPKLISVPRSHAKHPTDTYPHASEVTIKKAINRFLPRFNDKELFNRAMCWCTDTADSNLLVCEHPRWKGFYLATGDSGHSFKLLPNIGKHVVELLEGRLESVFKDAWRWRPGSGDALKSRRAAPAKDLADMPGWRNEAKM
B11: En42FX R108Q (protein)
chain: B10 chain with L108Q
B12: En42FX R108E (protein)
chain: B10 chain with L108E
B13: En42FX R108D (protein)
chain: B10 chain with L108D
B14: En42FX R105D (protein)
chain: B10 chain with R105D, L108R
B15: En42FX S112E (protein)
chain: B10 chain with L108R, S112E
B16: En42FX R105L (protein)
chain: B10 chain with R105L, L108R
B17: En42FX S112D (protein)
chain: B10 chain with L108R, S112D
B18: En42FX R105S (protein)
chain: B10 chain with R105S, L108R

Molecular target: T1, HbA1c-type αF8P …
B1 gave a relative activity on substrate (reference, designated as 100%) of 100%.
In the case of B2, the relative activity on substrate (reference, designated as 100%) is reported as 100% and the “specific activity on substrate” value is reported as “at least 20 mU/mg”.
In the case of B3, the relative activity on substrate (reference, designated as 100%) is reported as 100% and the “specific activity on substrate” value is reported as “at least 20 mU/mg”.
For B4, the relative activity on substrate (reference, designated as 100%) was 100% and the “specific activity on substrate” value was “at least 20 mU/mg”.
For B5, the relative activity on substrate (reference, designated as 100%) was 100%.
With B6 the relative activity on substrate (reference, designated as 100%) was 100% and the “specific activity on substrate” value was “at least 20 mU/mg”.
With B7 the relative activity on substrate (reference, designated as 100%) was 100% and the “specific activity on substrate” value was “at least 20 mU/mg”.
B8 was tested, and the relative activity on substrate (reference, designated as 100%) was 100%.
With B9 the relative activity on substrate (reference, designated as 100%) was 100% and the “specific activity on substrate” value was “at least 20 mU/mg”.
B10 gave a relative activity on substrate (reference, designated as 100%) of 100%.
B11 showed a relative activity on substrate (reference, designated as 100%) of 100%.
For B12, the relative activity on substrate (reference, designated as 100%) was 100%.
Work on B13 yielded a relative activity on substrate (reference, designated as 100%) of 100%.
B14 was tested, and the relative activity on substrate (reference, designated as 100%) was 100%.
B15 showed a relative activity on substrate (reference, designated as 100%) of 100%.
B16 showed a relative activity on substrate (reference, designated as 100%) of 100%.
In the case of B17, the relative activity on substrate (reference, designated as 100%) is reported as 100%.
B18 gave a relative activity on substrate (reference, designated as 100%) of 100%.

Molecular target: T2, HbC1c-type αF8P
B1 gave a relative activity on substrate (activity on HbA1c-type αF8P = 100%) of 11%.
In the case of B2, the “relative activity (HbC1c/HbA1c), fold over H40-3M before modification” value is reported as “improved by about 2.8 to 9.4 times”, the relative activity on substrate (activity on HbA1c-type αF8P = 100%) is reported as 103% and the “specific activity on substrate” value is reported as “at least 20 mU/mg”.
For B3, the relative activity on substrate (activity on HbA1c-type αF8P = 100%) was 40% and the “specific activity on substrate” value was “at least 20 mU/mg”.
For B4, the relative activity on substrate (activity on HbA1c-type αF8P = 100%) was 38% and the “specific activity on substrate” value was “at least 20 mU/mg”.
With B6 the relative activity on substrate (activity on HbA1c-type αF8P = 100%) was 48% and the “specific activity on substrate” value was “at least 20 mU/mg”.
In the case of B7, the relative activity on substrate (activity on HbA1c-type αF8P = 100%) is reported as 91% and the “specific activity on substrate” value is reported as “at least 20 mU/mg”.
B9 was tested, and the “relative activity (HbC1c/HbA1c), fold over H40-3M before modification” value was “improved by about 2.8 to 9.4 times”, the relative activity on substrate (activity on HbA1c-type αF8P = 100%) was 31% and the “specific activity on substrate” value was “at least 20 mU/mg”.
Work on B10 yielded a relative activity on substrate (activity on HbA1c-type αF8P = 100%) of 13%.
B11 was tested, and the relative activity on substrate (activity on HbA1c-type αF8P = 100%) was 15%.
B12 was tested, and the relative activity on substrate (activity on HbA1c-type αF8P = 100%) was 31%.
Protein B13 has a relative activity on substrate (activity on HbA1c-type αF8P = 100%) of 23%.
B14 was tested, and the “relative activity (HbC1c/HbA1c), fold over En42FX before modification” value was “improved by about 1.1 to 10.8 times” and the relative activity on substrate (activity on HbA1c-type αF8P = 100%) was 86%.
Work on B15 yielded a relative activity on substrate (activity on HbA1c-type αF8P = 100%) of 41%.
B16 was tested, and the “relative activity (HbC1c/HbA1c), fold over En42FX before modification” value was “improved by about 1.1 to 10.8 times” and the relative activity on substrate (activity on HbA1c-type αF8P = 100%) was 9%.
B17 was tested, and the relative activity on substrate (activity on HbA1c-type αF8P = 100%) was 16%.
Protein B18 has a relative activity on substrate (activity on HbA1c-type αF8P = 100%) of 13%.

Molecular target: T3, HbS1c-type αF8P
For B1, the relative activity on substrate (activity on HbA1c-type αF8P = 100%) was 39%.
In the case of B2, the “relative activity (HbS1c/HbA1c), fold over H40-3M before modification” value is reported as “improved by about 2.1 to 3.3 times”, the relative activity on substrate (activity on HbA1c-type αF8P = 100%) is reported as 130% and the “specific activity on substrate” value is reported as “at least 20 mU/mg”.
In the case of B3, the relative activity on substrate (activity on HbA1c-type αF8P = 100%) is reported as 104% and the “specific activity on substrate” value is reported as “at least 20 mU/mg”.
With B4 the relative activity on substrate (activity on HbA1c-type αF8P = 100%) was 104% and the “specific activity on substrate” value was “at least 20 mU/mg”.
With B5 the “relative activity (HbS1c/HbA1c), fold over H40-3M before modification” value was “about 1.97 times greater than that prior to modification” and the relative activity on substrate (activity on HbA1c-type αF8P = 100%) was 77%.
For B6, the relative activity on substrate (activity on HbA1c-type αF8P = 100%) was 83% and the “specific activity on substrate” value was “at least 20 mU/mg”.
With B7 the relative activity on substrate (activity on HbA1c-type αF8P = 100%) was 97% and the “specific activity on substrate” value was “at least 20 mU/mg”.
With B8 the “relative activity (HbS1c/HbA1c), fold over H40-3M before modification” value was “about 1.74 times greater than that prior to modification” and the relative activity on substrate (activity on HbA1c-type αF8P = 100%) was 68%.
In the case of B9, the “relative activity (HbS1c/HbA1c), fold over H40-3M before modification” value is reported as “improved by about 2.1 to 3.3 times”, the relative activity on substrate (activity on HbA1c-type αF8P = 100%) is reported as 81% and the “specific activity on substrate” value is reported as “at least 20 mU/mg”.
B10 was tested, and the “relative activity (HbS1c/HbA1c), fold over En42FX before modification” value was “improved by about 1.4 to 3.7 times” and the relative activity on substrate (activity on HbA1c-type αF8P = 100%) was 150%.
For B11, the relative activity on substrate (activity on HbA1c-type αF8P = 100%) was 67%.
For B12, the relative activity on substrate (activity on HbA1c-type αF8P = 100%) was 100%.
With B13 the relative activity on substrate (activity on HbA1c-type αF8P = 100%) was 95%.
With B14 the relative activity on substrate (activity on HbA1c-type αF8P = 100%) was 114%.
B15 gave a relative activity on substrate (activity on HbA1c-type αF8P = 100%) of 82%.
B16 was tested, and the relative activity on substrate (activity on HbA1c-type αF8P = 100%) was 64%.
Protein B17 has a relative activity on substrate (activity on HbA1c-type αF8P = 100%) of 63%.
B18 was tested, and the “relative activity (HbS1c/HbA1c), fold over En42FX before modification” value was “improved by about 1.4 to 3.7 times” and the relative activity on substrate (activity on HbA1c-type αF8P = 100%) was 56%.
